# Source: the nanobody polyreactivity screen of Harvey et al. (2022)
# Assay: yeast display, Sf9 membrane polyspecificity reagent, FACS + sequencing; frameworks hold sequencing errors
# Procedure, shortened: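 Using colony PCR, genes from sorted yeast display clones were amplified, then sequenced on MiSeq at 2 × 250 and filtered by CDR length. The clones had been stained with 10% biotinylated, detergent-solubilized Sf9 membrane reagent for 1 hour at 4 °C and sorted by FACS into low and high (top ~1%) gates on anti-HA and streptavidin fluorescence. Polyreactivity labels come from the gate of origin.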
row,Sequence,polyreactivity (PSR sort gate)
1,QVQHVESRGGLVQAGGSLRLRCAASGRIFSHYAMGWYRQAPGKERELVAAITSDGSTNYADSVKGRFTISRDNAKNTVYLQMNSLKPEDTAVYYCAKYVHIPYYYYLFGSYDYWGQGSQVTVSS,low polyreactivity
2,QVQHVESGGGLVQAGGSLRLSCAASGYTFYIYPMGWYRQAPGKERELVATISSSGGGTYYADSVKGRFTISRDNAKNTVYLQMNSLKPEETAVYYCAADSWRYVAEGLWREYDYWGQRTQVTVSS,low polyreactivity
3,QVQLVESGVGLVQAGGSLRLSCAASGSIFSPNAMVWSRQAPGKERELVAAITWSGDSTYYADSVKGRFTISRDNAKNTVYLQINSLKREDTEVYYCAADFTYQGSSANDYWGQGSQVTVSS,low polyreactivity
4,QVQLEESGGGLVQAGGSLRLSCAASGRIFTGYAMGWYRQAPGKERELVAAIRGSGTSTYYADSVKGRFTISRDNAKNTVYLQMNSLKPEDTAVFYCAADWYTSRGWDWYDYWGQGTQVTVSS,high polyreactivity
5,HEQLQESGGGLVQAVGSLRLSCAASGHISRSSTMGWYRQAPGKERELVTAITRGTNTNYADSVKGRFTISRDNAKNSEYLQMNSLKPEDTAVYYCAAYGVLKPSRGDAVFHRYWGQGTQVTVSR,low polyreactivity
6,QVQLVESGGGLDQAGGSLRLSCAASGSTFGWYAMGWYIQAPGTERELVAAINSSGGTTYYADSVKGLFTISRDNAMNTVYLQMNSLKPEDTAVHYCAARQVYSVGKDTRSVGYWGQGTQVTGSS,low polyreactivity
7,QVQLVESGGGLVQAGGSLRLTCAASGITLGFYAMGWYRQAPGKERELVAAISGRGGSTYYADSVKGRFTISRDNAKNTVYLKMNSLKPEDTPVYYCNALGYYQLVTPFYYWGQGTQVTVSS,high polyreactivity
8,QVQLVESGGGLVQAGGSLRLSCAASGSTRIYAMGWYRQAPGKERELVAAISWTGGRTYYADSVKGRFTISRDNAKNTVYLQMNSLKPEDTAVYYCAAKGSGRDYWGQGTQVTVSS,high polyreactivity
9,QVQLVESGGGLVQEGGSLRLSCAASGSIFSIYAMGWYRQAPGKERELVAAIDSGTSTTYADSVKGRFTISRDNAKNTVYLQMNSLKPEDTAVYYCAAALYSDVAAVATYGYYWGQGTQVTVSS,low polyreactivity
10,QVQLQDSGGGLVQAGGSLRLSCAASGTISYRYRMGWYRQAPRKEVELVAGIRVGSITYDADSVKGRFTISRDNAKNTVYLQMNSLKPEDIAVYYCAVYQKSYRFFPYWGQGTQVTVSS,high polyreactivity
11,QVQLVESGGGLVQAGGSLRLSCAASGRIFIINALGWYRQAPGKERELVAAINTGGGTNYADSVKGRFTISRDNAKNTVYLQMNSLKPEDTAVYYCAARTYDYRARHKDGYWGQGTQVTVSS,high polyreactivity
12,QVQLVESGGGLVQAGGSLRLSCAASGSTFLGYTMGWYRQAPGKERELVASITNSGSTDYADSVKGRFTISRDNAKNTVYLHMNSLKPEDTAVYYCAAQFYRYPSKNDYWGQGTQVTVSS,high polyreactivity
13,QVQRVESGGGLVQAGGSLRLTSAVSGTTFYIYAMGWYRQAPGKEREFVAAIDFSGSSTYADSVKGRFTISRDNAKNTVYLQMNSLKPEDTEVYYCAAYQIFQYDGPYDYWGQGTQVTVSS,low polyreactivity
14,QVQLVESGGGLVQAGGSLRLSCAASGSIFDVYAMGWYRQAPGKERELVAAITWRGGSTYYADSVKGRFTISRDNAKNTVYLQMNSLKPEDTAVYYCAAVYQSRLWDRYYYWGQGTQVTVSS,high polyreactivity
15,QVQLVDSGGGLVQAGGSIRLSCSPSGGTFGLNSMGWYRQAPGQERELVADIDGRGGSTYYADSVKGRFTISRDNAKNTVYLQMNRLKPEDPAVYYCADLAPFLSVPSELDYWRQGTQVTVSS,low polyreactivity
16,QVQLVESGGGLVQAGGSLRLSCAASGFTFKKYAMGWYRQAPGKERELVASITWSGGSTSYADSVKGRFTISRDNAKNTVYLQMNSRKPEDTAVYYCDAATFVYRLRYNRFDYWGQGTQVTVSS,high polyreactivity
17,QVQLVESGGGLVQAGGSLRLSCAASGRTFTYNAMGWYRQAPGKDRELVARISFSGSSTYYADSVKGRFTISRDNAKNTVYLQMNSLKPEDTAVYYCATEAPYYIGGRYRYQRYDYWGQGTQVTVSS,high polyreactivity
